This is an account of results in article doi:10.1101/322701 (bioRxiv, 2018).

Holding throughout (test): BLI
(In general: Biolayer interferometry detects binding as a change in optical thickness at a sensor tip.)

Test [1] addresses N-terminally His-tagged GrgA, full length (Chlamydia trachomatis) (UniProt O84512).
The target of test [2] is NH-GrgAΔ1-64 (Chlamydia trachomatis) (UniProt O84512).
In test [3] the target is Biotinylated NH-GrgA (Chlamydia trachomatis) (UniProt O84512).
For test [4], the target named is T1, N-terminally His-tagged GrgA, full length (Chlamydia trachomatis, UniProt O84512 1-288).
T1 sequence (looked up): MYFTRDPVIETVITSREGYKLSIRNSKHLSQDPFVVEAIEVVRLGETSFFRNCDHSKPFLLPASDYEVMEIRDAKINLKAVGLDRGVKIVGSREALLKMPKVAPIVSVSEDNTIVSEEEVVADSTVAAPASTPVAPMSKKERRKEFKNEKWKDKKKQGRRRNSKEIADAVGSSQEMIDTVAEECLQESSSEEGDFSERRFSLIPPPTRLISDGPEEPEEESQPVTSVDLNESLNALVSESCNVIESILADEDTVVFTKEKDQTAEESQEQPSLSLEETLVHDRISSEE

In test [5] the target is N-terminally poly-His-tagged C. trachomatis σ^28 (C. trachomatis).
N-terminally poly-His-tagged C. trachomatis σ^28 (C. trachomatis), sequence (B0B8K1 whole entry): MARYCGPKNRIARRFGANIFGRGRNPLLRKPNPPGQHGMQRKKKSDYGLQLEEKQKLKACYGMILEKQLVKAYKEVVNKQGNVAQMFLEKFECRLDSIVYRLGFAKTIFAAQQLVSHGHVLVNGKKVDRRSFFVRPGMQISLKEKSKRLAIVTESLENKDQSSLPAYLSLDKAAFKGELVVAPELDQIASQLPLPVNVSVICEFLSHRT
The target in another test is T2, CH-σ^66 (C. trachomatis, UniProt P18333 1-571).
T2 sequence (looked up): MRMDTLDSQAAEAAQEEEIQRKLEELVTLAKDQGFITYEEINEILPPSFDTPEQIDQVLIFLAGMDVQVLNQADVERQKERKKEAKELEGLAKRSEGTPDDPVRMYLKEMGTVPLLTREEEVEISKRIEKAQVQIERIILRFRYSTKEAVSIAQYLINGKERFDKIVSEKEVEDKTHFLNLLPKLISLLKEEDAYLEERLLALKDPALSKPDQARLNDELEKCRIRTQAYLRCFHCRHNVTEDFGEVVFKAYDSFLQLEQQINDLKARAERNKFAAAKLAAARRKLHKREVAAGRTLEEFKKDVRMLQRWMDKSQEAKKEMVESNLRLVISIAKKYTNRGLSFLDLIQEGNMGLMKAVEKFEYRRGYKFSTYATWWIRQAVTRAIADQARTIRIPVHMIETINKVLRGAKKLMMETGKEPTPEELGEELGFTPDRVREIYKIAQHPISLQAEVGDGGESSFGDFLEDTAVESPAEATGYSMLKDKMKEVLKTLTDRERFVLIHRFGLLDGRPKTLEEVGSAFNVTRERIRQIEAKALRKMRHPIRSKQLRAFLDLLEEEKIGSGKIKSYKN

For “N-terminally strep-tagged σ^28 (natural protein)”, the fold higher KD than the NH-GrgA-CS-σ^66 interaction in test [1] came out at 32 fold. In test [2], this molecule came in with a fold decrease in ka against full length NH-GrgA of 3 fold, a fold increase in KD against full length NH-GrgA of 4.8 fold and a fold increase in kd against full length NH-GrgA of 2 fold.

With NH-σ^28ΔNL (domain or fragment), the fold higher KD than full length NH-σ^28 in test [3] was found to be 345 fold.

In test [3], NH-σ^28ΔR2 (natural protein) returned a fold higher KD than full length NH-σ^28 of 177 fold and a fold reduction in ka against full length NH-σ^28 of 2 fold.

NH-σ^28ΔR3 (natural protein): in test [3], the fold higher KD than full length NH-σ^28 is 7 fold and the fold increase in ka against full length NH-σ^28 was 3.5 fold.

In the case of NH-σ^28ΔR4 (natural protein), in test [3], the fold higher KD than full length NH-σ^28 amounted to 7 fold and the percent increase in ka against full length NH-σ^28 came to 50%.

B1: CS-σ^66 (natural protein, C. trachomatis, UniProt P18333 1-571, looked up)
chain: MRMDTLDSQAAEAAQEEEIQRKLEELVTLAKDQGFITYEEINEILPPSFDTPEQIDQVLIFLAGMDVQVLNQADVERQKERKKEAKELEGLAKRSEGTPDDPVRMYLKEMGTVPLLTREEEVEISKRIEKAQVQIERIILRFRYSTKEAVSIAQYLINGKERFDKIVSEKEVEDKTHFLNLLPKLISLLKEEDAYLEERLLALKDPALSKPDQARLNDELEKCRIRTQAYLRCFHCRHNVTEDFGEVVFKAYDSFLQLEQQINDLKARAERNKFAAAKLAAARRKLHKREVAAGRTLEEFKKDVRMLQRWMDKSQEAKKEMVESNLRLVISIAKKYTNRGLSFLDLIQEGNMGLMKAVEKFEYRRGYKFSTYATWWIRQAVTRAIADQARTIRIPVHMIETINKVLRGAKKLMMETGKEPTPEELGEELGFTPDRVREIYKIAQHPISLQAEVGDGGESSFGDFLEDTAVESPAEATGYSMLKDKMKEVLKTLTDRERFVLIHRFGLLDGRPKTLEEVGSAFNVTRERIRQIEAKALRKMRHPIRSKQLRAFLDLLEEEKIGSGKIKSYKN
Consider B1, for which, in test [4], the “fold higher ka than the NS-σ^28 analyte on NH-GrgA” value is 25 fold and the “fold increase in kd over the NS-σ^28 analyte on NH-GrgA” value was 3 fold.

B2: N-terminally strep-tagged GrgA (natural protein, Chlamydia trachomatis, UniProt O84512 1-288, looked up)
chain: MYFTRDPVIETVITSREGYKLSIRNSKHLSQDPFVVEAIEVVRLGETSFFRNCDHSKPFLLPASDYEVMEIRDAKINLKAVGLDRGVKIVGSREALLKMPKVAPIVSVSEDNTIVSEEEVVADSTVAAPASTPVAPMSKKERRKEFKNEKWKDKKKQGRRRNSKEIADAVGSSQEMIDTVAEECLQESSSEEGDFSERRFSLIPPPTRLISDGPEEPEEESQPVTSVDLNESLNALVSESCNVIESILADEDTVVFTKEKDQTAEESQEQPSLSLEETLVHDRISSEE
B2: the fold higher KD than the CH-σ^66-NS-GrgA interaction in test [5] was found to be 28 fold. In the test with CH-σ^66, the “fold higher ka than for NH-σ^28 as ligand” value was 3.7 fold and the “fold slower dissociation (kd) than from NH-σ^28” value came out at 6 fold.
